Measurements as given in paper PMC10572589.

Assays:
[1] = target: AusM^N127A (Aspergillus usamii E001 (parent AuXyn11A))
[2] = target: thermostable GHF11 xylanase AusM (Aspergillus usamii E001 (parent AuXyn11A))

residual xylanase activity at a molar ratio of SyXIP-I/xylanase of 100:1 (% of initial activity) [1]: 62.7
molar excess of SyXIP-I over AusM needed for almost complete inhibition of xylanase activity (mol SyXIP-I per mol AusM) [2]: > 80
molar ratio of SyXIP-I to AusM at which the inhibition rate of xylanase activity reached 50% (birchwood xylan, pH 4.6, 50 °C) (mol SyXIP-I per mol AusM) [2]: 7
B1: xylanase inhibitor protein SyXIP-I (natural protein)
chain: AGGKTGQVTVFWGRNKAEGSLREACDSGMYTMVTMSFLDVFGANGKYHLDLSGHDLSSVGADIKHCQSKGVPVSLSIGGYGTGYSLPSNRSALDLFDHLWNSYFGGSKPSVPRPFGDAWLDGVDLFLEHGTPADRYDVLALELAKHNIRGGPGKPLHLTATVRCGYPPAAHVGRALATGIFERVHVRTYESDKWCNQNLGWEGSWDKWTAAYPATRFYVGLTADDKSHQWVHPKNVYYGVAPVAQKKDNYGGIMLWDRYFDKQTNYSSLIKYYA
